{"source": "patent US20150315556", "proteins": {"B1": {"name": "ANT1 rationally-designed meganuclease (I-CreI derivative) (protein)", "chain": "MNTKYNKEFLLYLAGFVDGDGSIIAQIAPNQNCKFKHQLQLRFQVTQKTQRRWFLDKLVDEIGVGYVRDRGSVSDYILSEIKPLHNFLTQLQPFLKLKQKQANLVLKIIWRLPSAKESPDKFLEVCTWVDQIAALNDSKTRKTTSETVRAVLDSLSEKKKSSPHHHHHH"}, "B2": {"name": "PDX1 rationally-designed meganuclease (I-CreI derivative) (protein)", "chain": "B1 chain with A28K, R42A"}, "B3": {"name": "GLA1 rationally-designed meganuclease (I-CreI derivative) (protein)", "chain": "MNTKYNKEFLLYLAGFVDGDGSIKAAIKPRQSYKFKHELSLAFQVTQKTQRRWFLDKLVDEIGVGYVYDRGSVSDYQLCEIKPLHNFLTQLQPFLKLKQKQANLVLKIIWRLPSAKESPDKFLEVCTWVDQIAALNDSKTRKTTSETVRAVLDSLSEKKKSSPHHHHHH"}, "B4": {"name": "BRP1 rationally-designed meganuclease (I-CreI derivative) (protein)", "chain": "B3 chain with A26Q, K28R, S32C, Y33R, S40E, Y66K, Q77E, C79S"}, "B5": {"name": "MGC1 rationally-designed meganuclease (I-CreI derivative) (protein)", "chain": "B1 chain with I24K, A28K, N32C, C33Y, R42A, R68Y"}, "B6": {"name": "CYP rationally-designed meganuclease (I-CreI derivative) (protein)", "chain": "B3 chain with K24I, R30N, S32D, E38Q, S40R, C79S"}, "B7": {"name": "URA1 rationally-designed meganuclease (I-CreI derivative) (protein)", "chain": "B1 chain with A28K, N32S, Q40R, R42A, Q44T"}, "B8": {"name": "LAM1 rationally-designed meganuclease (I-CreI derivative) (protein)", "chain": "B1 chain with A28D, N30R, N32C, C33R, Q38E, Q40R"}, "B9": {"name": "LAM1 variant in which lysines at positions 7, 57 and 96 were changed to glutamic acids (protein)", "chain": "B1 chain with K7E, A28D, N30R, N32C, C33R, Q38E, Q40R, K57E, K96E"}, "B10": {"name": "ACH1 rationally-designed meganuclease (I-CreI derivative) (protein)", "chain": "B1 chain with Q26A, A28D, N30E, N32D, Q38R, Q40R, I77Q"}, "B11": {"name": "HGH1 rationally-designed meganuclease (I-CreI derivative) (protein)", "chain": "B1 chain with A28D, N32D, Q40R"}, "B12": {"name": "CF1 rationally-designed meganuclease (I-CreI derivative) (protein)", "chain": "B1 chain with I24C, A28K, N32S, C33Y, R42A, R68H"}, "B13": {"name": "CCR1 rationally-designed meganuclease (I-CreI derivative) (protein)", "chain": "B3 chain with A26Q, K28R, S32N, S40E, A42E, Q77I, C79S"}, "B14": {"name": "MYD1 rationally-designed meganuclease (I-CreI derivative) (protein)", "chain": "B3 chain with K24I, A26Q, K28R, S40E, Y66K, Y68R, Q77E, C79S"}, "B15": {"name": "HSV1 rationally-designed meganuclease (I-CreI derivative) (protein)", "chain": "B1 chain with A28K, N30R, N32S, Q38E, Q40R, R42Q"}}, "key": {"[1]": {"target": "T1, ANT2 rationally-designed meganuclease (I-CreI derivative)", "T1 chain": "B1 chain with A28K, N32C, C33Y, R42E"}, "[2]": {"target": "T2, PDX2 rationally-designed meganuclease (I-CreI derivative)", "T2 chain": "B1 chain with A28C, N30R, N32C, C33R, Q38E, Q40R, R42Q"}, "[3]": {"target": "T3, GLA2 rationally-designed meganuclease (I-CreI derivative)", "T3 chain": "B3 chain with K28R, S40E, A42R, C79S"}, "[4]": {"target": "T4, BRP2 rationally-designed meganuclease (I-CreI derivative)", "T4 chain": "B1 chain with Q26S, A28R, N30R, N32S, Q38E, Q40E, I77R"}, "[5]": {"target": "T5, MGC2 rationally-designed meganuclease (I-CreI derivative)", "T5 chain": "B3 chain with K24I, Y33R, S40Q, Q44T, Y68R, C79S"}, "[6]": {"target": "T6, HGH2 rationally-designed meganuclease (I-CreI derivative; partner of CYP, half-site SEQ ID NO: 76)", "T6 chain": "B1 chain with I24K, Q26S, A28K, N32S, R42A, Y66K, R68Y, I77R"}, "[7]": {"target": "T7, URA2 rationally-designed meganuclease (I-CreI derivative)", "T7 chain": "B1 chain with I24K, A28R, N30E, Q38R, Q40E, R68Y"}, "[8]": {"target": "T8, LAM2 rationally-designed meganuclease (I-CreI derivative)", "T8 chain": "B1 chain with A28K, N30E, N32S, C33Y, Q38R, Q40R, R42E"}, "[9]": {"target": "T9, LAM2 variant in which glutamic acids at positions 8 and 61 were changed to lysine", "T9 chain": "B1 chain with E8K, A28K, N30E, N32S, C33Y, Q38R, Q40R, R42E, E61K"}, "[10]": {"target": "T10, ACH2 rationally-designed meganuclease (I-CreI derivative)", "T10 chain": "B1 chain with A28K, N30E, N32D, C33Y, Q38R, Q40R, R42E"}, "[11]": {"target": "T11, HGH2 rationally-designed meganuclease (I-CreI derivative; partner of HGH1, half-site SEQ ID NO: 56)", "T11 chain": "B1 chain with Q26A, A28D, N32K, C33R, Q40R"}, "[12]": {"target": "T12, CF2 rationally-designed meganuclease (I-CreI derivative)", "T12 chain": "B1 chain with I24C, Q26A, A28K, N30E, C33R, Q38R, R42A, Q44T, R68Y"}, "[13]": {"target": "T13, CCR2 rationally-designed meganuclease (I-CreI derivative)", "T13 chain": "B1 chain with I24K, A28K, N30E, C33R, Q38R, Q40E, R42A, R68Y"}, "[14]": {"target": "T14, MYD2 rationally-designed meganuclease (I-CreI derivative)", "T14 chain": "B1 chain with Q26A, A28R, N30E, N32S, C33Y, Q38R, Q40E, I77Q"}, "[15]": {"target": "T15, HSV2 rationally-designed meganuclease (I-CreI derivative)", "T15 chain": "B1 chain with A28R, N30R, N32C, C33R, Q38E, Q40E"}}, "note": "Numbering of substitutions follows the chain as printed.", "data": [{"protein": "B1", "values": [{"measurement": "cleavage of a linearized DNA substrate containing the intended non-palindromic recognition sequence by the 1:1 mixture", "setting": "[1]", "result": "each rationally-designed meganuclease heterodimer cleaves its intended DNA site"}]}, {"protein": "B2", "values": [{"measurement": "cleavage of a linearized DNA substrate containing the intended non-palindromic recognition sequence by the 1:1 mixture", "setting": "[2]", "result": "each rationally-designed meganuclease heterodimer cleaves its intended DNA site"}]}, {"protein": "B3", "values": [{"measurement": "cleavage of a linearized DNA substrate containing the intended non-palindromic recognition sequence by the 1:1 mixture", "setting": "[3]", "result": "each rationally-designed meganuclease heterodimer cleaves its intended DNA site"}]}, {"protein": "B4", "values": [{"measurement": "cleavage of a linearized DNA substrate containing the intended non-palindromic recognition sequence by the 1:1 mixture", "setting": "[4]", "result": "each rationally-designed meganuclease heterodimer cleaves its intended DNA site"}]}, {"protein": "B5", "values": [{"measurement": "cleavage of a linearized DNA substrate containing the intended non-palindromic recognition sequence by the 1:1 mixture", "setting": "[5]", "result": "each rationally-designed meganuclease heterodimer cleaves its intended DNA site"}]}, {"protein": "B6", "values": [{"measurement": "cleavage of a linearized DNA substrate containing the intended non-palindromic recognition sequence by the 1:1 mixture", "setting": "[6]", "result": "each rationally-designed meganuclease heterodimer cleaves its intended DNA site"}]}, {"protein": "B7", "values": [{"measurement": "cleavage of a linearized DNA substrate containing the intended non-palindromic recognition sequence by the 1:1 mixture", "setting": "[7]", "result": "each rationally-designed meganuclease heterodimer cleaves its intended DNA site"}]}, {"protein": "B8", "values": [{"measurement": "cleavage of the non-palindromic LAM1/LAM2 hybrid DNA site by a 1:1 mixture incubated at 42 C for 20 minutes", "setting": "[8]", "result": "The 1:1 mixture of LAM1 and LAM2, however, cleaves all three DNA sites"}, {"measurement": "cleavage of the non-palindromic LAM1/LAM2 hybrid DNA site by the co-expressed enzyme mixture", "setting": "[8]", "result": "The co-expressed enzyme mixture was found to cleave all three sites, including the LAM1/LAM2 hybrid site"}]}, {"protein": "B9", "values": [{"measurement": "cleavage of the LAM1/LAM2 hybrid site against the two palindromic sites by the co-expressed interface variants", "setting": "[9]", "result": "the LAM1/LAM2 hybrid site was found to be cleaved preferentially over the two palindromic sites"}]}, {"protein": "B10", "values": [{"measurement": "cleavage of a linearized DNA substrate containing the intended non-palindromic recognition sequence by the 1:1 mixture", "setting": "[10]", "result": "each rationally-designed meganuclease heterodimer cleaves its intended DNA site"}]}, {"protein": "B11", "values": [{"measurement": "cleavage of a linearized DNA substrate containing the intended non-palindromic recognition sequence by the 1:1 mixture", "setting": "[11]", "result": "each rationally-designed meganuclease heterodimer cleaves its intended DNA site"}]}, {"protein": "B12", "values": [{"measurement": "cleavage of a linearized DNA substrate containing the intended non-palindromic recognition sequence by the 1:1 mixture", "setting": "[12]", "result": "each rationally-designed meganuclease heterodimer cleaves its intended DNA site"}]}, {"protein": "B13", "values": [{"measurement": "cleavage of a linearized DNA substrate containing the intended non-palindromic recognition sequence by the 1:1 mixture", "setting": "[13]", "result": "each rationally-designed meganuclease heterodimer cleaves its intended DNA site"}]}, {"protein": "B14", "values": [{"measurement": "cleavage of a linearized DNA substrate containing the intended non-palindromic recognition sequence by the 1:1 mixture", "setting": "[14]", "result": "each rationally-designed meganuclease heterodimer cleaves its intended DNA site"}]}, {"protein": "B15", "values": [{"measurement": "cleavage of a linearized DNA substrate containing the intended non-palindromic recognition sequence by the 1:1 mixture", "setting": "[15]", "result": "each rationally-designed meganuclease heterodimer cleaves its intended DNA site"}]}]}
